Test results from the Human Domainome abundance scans (Beltran et al. 2025).
± gives the uncertainty stated by the source.

Assay: abundance fitness (aPCA) (normalised: wild type 0, dead -1); higher = more abundant; growth selection in yeast, the domain comes from the species named
Settings: Homo sapiens

| Substance | abundance fitness |
| --- | --- |
| Transcription factor SOX-4 E88V, Q06945 | -0.649 ± 0.066 |
| Transcription factor SOX-4 I106R, Q06945 | -0.209 ± 0.042 |
| Transcription factor SOX-4 D125N, Q06945 | -0.045 ± 0.22 |

Same assay, conditions: Saccharomyces cerevisiae (strain ATCC 204508 / S288c)

| Substance | abundance fitness |
| --- | --- |
| E3 ubiquitin-protein ligase RSP5 G325Q, P39940 | -0.151 ± 0.1 |
| E3 ubiquitin-protein ligase RSP5 F349V, P39940 | -0.739 ± 0.044 |
| E3 ubiquitin-protein ligase RSP5 T326Q, P39940 | -0.071 ± 0.057 |
| E3 ubiquitin-protein ligase RSP5 Y348G, P39940 | -0.796 ± 0.043 |
| E3 ubiquitin-protein ligase RSP5 W337A, P39940 | -0.649 ± 0.06 |
| E3 ubiquitin-protein ligase RSP5 D361L, P39940 | -0.641 ± 0.056 |
| E3 ubiquitin-protein ligase RSP5 L333I, P39940 | -0.227 ± 0.067 |
| E3 ubiquitin-protein ligase RSP5 R346Q, P39940 | 0.165 ± 0.066 |
| E3 ubiquitin-protein ligase RSP5 E344R, P39940 | -0.256 ± 0.047 |
| E3 ubiquitin-protein ligase RSP5 T354A, P39940 | -0.152 ± 0.052 |
| E3 ubiquitin-protein ligase RSP5 G324T, P39940 | -0.04 ± 0.11 |
| E3 ubiquitin-protein ligase RSP5 L333P, P39940 | -0.63 ± 0.054 |
| E3 ubiquitin-protein ligase RSP5 G331M, P39940 | -0.02 ± 0.055 |
| E3 ubiquitin-protein ligase RSP5 R340W, P39940 | -0.088 ± 0.054 |
| E3 ubiquitin-protein ligase RSP5 W359I, P39940 | -0.258 ± 0.1 |
| E3 ubiquitin-protein ligase RSP5 Y348P, P39940 | -1.17 ± 0.086 |
| E3 ubiquitin-protein ligase RSP5 L330M, P39940 | 0.089 ± 0.073 |
| E3 ubiquitin-protein ligase RSP5 T357D, P39940 | -0.711 ± 0.06 |
| E3 ubiquitin-protein ligase RSP5 L333F, P39940 | -0.034 ± 0.054 |
| E3 ubiquitin-protein ligase RSP5 G324P, P39940 | -0.178 ± 0.1 |
| E3 ubiquitin-protein ligase RSP5 Q365K, P39940 | 0.022 ± 0.064 |
| E3 ubiquitin-protein ligase RSP5 A347N, P39940 | -0.034 ± 0.059 |
| E3 ubiquitin-protein ligase RSP5 N353R, P39940 | -0.177 ± 0.04 |
| E3 ubiquitin-protein ligase RSP5 T327S, P39940 | 0.038 ± 0.05 |

| Substance | abundance fitness |
| --- | --- |
| E3 ubiquitin-protein ligase RSP5 G345C, P39940 | -0.364 ± 0.06 |
| E3 ubiquitin-protein ligase RSP5 L333T, P39940 | -0.572 ± 0.054 |
| E3 ubiquitin-protein ligase RSP5 F349K, P39940 | -0.837 ± 0.13 |
| E3 ubiquitin-protein ligase RSP5 R363Y, P39940 | -0.667 ± 0.08 |
| E3 ubiquitin-protein ligase RSP5 W359C, P39940 | -0.336 ± 0.085 |
| E3 ubiquitin-protein ligase RSP5 Q339D, P39940 | -0.602 ± 0.09 |
| E3 ubiquitin-protein ligase RSP5 P334S, P39940 | -0.582 ± 0.053 |
| E3 ubiquitin-protein ligase RSP5 D361N, P39940 | -0.304 ± 0.085 |
| E3 ubiquitin-protein ligase RSP5 A347P, P39940 | -0.115 ± 0.064 |
| E3 ubiquitin-protein ligase RSP5 H352T, P39940 | -0.197 ± 0.055 |
| E3 ubiquitin-protein ligase RSP5 E332G, P39940 | -0.066 ± 0.046 |
| E3 ubiquitin-protein ligase RSP5 T326D, P39940 | 0.094 ± 0.068 |
| E3 ubiquitin-protein ligase RSP5 G325T, P39940 | 0.071 ± 0.097 |
| E3 ubiquitin-protein ligase RSP5 R355L, P39940 | -0.192 ± 0.049 |
| E3 ubiquitin-protein ligase RSP5 D351M, P39940 | -0.772 ± 0.13 |
| E3 ubiquitin-protein ligase RSP5 Q339C, P39940 | -0.092 ± 0.07 |
| E3 ubiquitin-protein ligase RSP5 N353S, P39940 | -0.109 ± 0.061 |
| E3 ubiquitin-protein ligase RSP5 R364A, P39940 | 0.113 ± 0.055 |
| E3 ubiquitin-protein ligase RSP5 Q365R, P39940 | 0.014 ± 0.043 |
| E3 ubiquitin-protein ligase RSP5 R355P, P39940 | -0.64 ± 0.064 |
| E3 ubiquitin-protein ligase RSP5 D351S, P39940 | -0.584 ± 0.057 |
| E3 ubiquitin-protein ligase RSP5 T342P, P39940 | -0.556 ± 0.074 |
| E3 ubiquitin-protein ligase RSP5 F349W, P39940 | -0.008 ± 0.052 |
| E3 ubiquitin-protein ligase RSP5 D351E, P39940 | -0.488 ± 0.052 |

| Substance | abundance fitness |
| --- | --- |
| E3 ubiquitin-protein ligase RSP5 R364L, P39940 | 0.074 ± 0.043 |
| E3 ubiquitin-protein ligase RSP5 R355V, P39940 | -0.425 ± 0.045 |
| E3 ubiquitin-protein ligase RSP5 S328D, P39940 | 0.126 ± 0.074 |
| E3 ubiquitin-protein ligase RSP5 T326A, P39940 | -0.023 ± 0.05 |
| E3 ubiquitin-protein ligase RSP5 E338A, P39940 | -0.333 ± 0.056 |
| E3 ubiquitin-protein ligase RSP5 G345K, P39940 | 0.148 ± 0.11 |
| E3 ubiquitin-protein ligase RSP5 Q366W, P39940 | -0.001 ± 0.061 |
| E3 ubiquitin-protein ligase RSP5 V360M, P39940 | 0.022 ± 0.062 |
| E3 ubiquitin-protein ligase RSP5 E344K, P39940 | -0.222 ± 0.063 |
| E3 ubiquitin-protein ligase RSP5 T354V, P39940 | -0.445 ± 0.043 |
| E3 ubiquitin-protein ligase RSP5 P334A, P39940 | -0.61 ± 0.07 |
| E3 ubiquitin-protein ligase RSP5 V360H, P39940 | 0.043 ± 0.059 |
| E3 ubiquitin-protein ligase RSP5 D351Q, P39940 | -0.612 ± 0.21 |
| E3 ubiquitin-protein ligase RSP5 G325L, P39940 | 0.029 ± 0.11 |
| E3 ubiquitin-protein ligase RSP5 G329S, P39940 | 0.103 ± 0.054 |
| E3 ubiquitin-protein ligase RSP5 R346W, P39940 | -0.017 ± 0.073 |
| E3 ubiquitin-protein ligase RSP5 L330T, P39940 | -0.044 ± 0.062 |
| E3 ubiquitin-protein ligase RSP5 G345M, P39940 | -0.14 ± 0.074 |
| E3 ubiquitin-protein ligase RSP5 D361P, P39940 | -0.516 ± 0.12 |
| E3 ubiquitin-protein ligase RSP5 R355C, P39940 | -0.17 ± 0.052 |
| E3 ubiquitin-protein ligase RSP5 Q339Y, P39940 | -0.181 ± 0.1 |
| E3 ubiquitin-protein ligase RSP5 W337G, P39940 | -0.503 ± 0.051 |
| E3 ubiquitin-protein ligase RSP5 Y348T, P39940 | -0.686 ± 0.087 |
| E3 ubiquitin-protein ligase RSP5 V360Y, P39940 | 0.194 ± 0.084 |
